The values below come from US20190194317A1 (FARON PHARMACEUTICALS, published 2019).

Experiment [1] addresses T1, CLEVER-1 coated on the ELISA plate (competition ELISA, Examples 5 and 10) (human, UniProt Q9NY15 26-1027, limits assumed).
T1 construct: Coated at 1 ug/ml in PBS; also called human Clever-1
T1 sequence (looked up): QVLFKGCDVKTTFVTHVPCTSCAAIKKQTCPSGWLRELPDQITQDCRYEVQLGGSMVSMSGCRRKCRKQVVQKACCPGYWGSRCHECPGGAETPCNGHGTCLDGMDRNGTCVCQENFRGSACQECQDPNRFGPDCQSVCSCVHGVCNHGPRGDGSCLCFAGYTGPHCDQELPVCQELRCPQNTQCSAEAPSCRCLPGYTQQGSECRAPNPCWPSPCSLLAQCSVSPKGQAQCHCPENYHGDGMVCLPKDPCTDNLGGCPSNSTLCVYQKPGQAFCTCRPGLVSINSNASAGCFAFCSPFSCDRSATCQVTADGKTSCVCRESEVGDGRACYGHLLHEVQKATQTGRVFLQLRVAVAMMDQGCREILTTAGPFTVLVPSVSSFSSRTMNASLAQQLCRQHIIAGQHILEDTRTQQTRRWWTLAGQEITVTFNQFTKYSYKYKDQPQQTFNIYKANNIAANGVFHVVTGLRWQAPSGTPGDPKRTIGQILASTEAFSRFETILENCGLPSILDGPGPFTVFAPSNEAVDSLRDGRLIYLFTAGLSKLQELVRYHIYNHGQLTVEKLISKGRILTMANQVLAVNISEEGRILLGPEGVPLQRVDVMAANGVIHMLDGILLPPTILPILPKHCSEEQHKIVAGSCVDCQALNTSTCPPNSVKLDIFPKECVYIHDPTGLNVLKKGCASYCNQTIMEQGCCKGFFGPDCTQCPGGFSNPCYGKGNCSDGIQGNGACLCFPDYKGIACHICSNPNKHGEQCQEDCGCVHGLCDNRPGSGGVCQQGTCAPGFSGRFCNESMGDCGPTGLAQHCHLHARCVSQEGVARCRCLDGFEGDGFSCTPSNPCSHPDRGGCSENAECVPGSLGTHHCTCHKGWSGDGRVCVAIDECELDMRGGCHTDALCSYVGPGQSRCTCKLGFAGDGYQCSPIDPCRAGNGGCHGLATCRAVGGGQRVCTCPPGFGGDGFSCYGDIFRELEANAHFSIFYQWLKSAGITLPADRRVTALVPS
Put plainly: competition ELISA on coated CLEVER-1 against biotinylated mouse 3-372. On the procedure:
These were incubated for 1 hour at room temperature on a 96 well Immulon maxisorp plate (Fisher Cat. No. DIS-971-030J) precoated with 1 μg/ml CLEVER-1. […] The reaction was stopped with 3M HCl, absorbance read at 450 nm on a Dynex Technologies MRX TC II plate reader and the binding curves plotted. IC50 values for each antibody were calculated and these were normalized to the IC50 of the chimera which was included on each respective ELISA plate.
On the technique in general: In an ELISA, binding on a coated surface is turned into a signal by an enzyme label.

Experiment [2] addresses T1, CLEVER-1 coated on the ELISA plate …. Put plainly: competition ELISA on coated CLEVER-1 against 0.6 µg/ml biotinylated mouse 3-372. On the procedure: Briefly, a Nunc Immulon 96 well maxisorp plate (Fisher Cat. No. DIS-971-030J) was coated with CLEVER-1 at 1 μg/ml in PBS (100 μl/well) overnight at 4° C., with an additional 1 hour at 37° C. the following morning. Wells were washed with PBS/0.1% Tween 20 and then blocked for 45 min at room temperature, in 1% Marvel/1% BSA/PBS.
The blocked ELISA plate was washed as before and 100 μl of the premixed antibodies added to each well. The plate was incubated for 1 hour at room temperature.
This confirms that the correct variable region sequences have been identified and expressed in the chimeric antibody.

B1: chimeric 3-372 IgG4 (antibody, V domains shown)
VH: QVTLKESGPGILQPSQTLSLTCSFSGFSLNTSGMGIGWIRQPSGKGLEWLAHIWWDDDKRYNPALKSRLTISKDTSSNQVFLKIASVDTADTATYYCARHYGYDPYYAMDYWGQGTSVTVSS
VL: QIVLTQSPAIMSASLGERVTMTCTASSSVSSSYLHWYQQRPGSSPKLCIYRTSNLASGVPPRFSGSGSGTSYSLTISSMEAEDAATYYCHQYHRSPPTFGGGTKLEIN
notes: Expressed in NSO cells; also called CH/CK; chimera
By IC50 is commonly meant the concentration that gives 50% inhibition. Lower therefore signals higher potency. In the case of B1, the “Relative IC50” value in experiment [1] is 1 relative to the chimera on the same plate. This molecule also had an IC50 in experiment [2] of 0.89 µg/mL.

B2: mouse monoclonal antibody 3-372 (DSM ACC2520) (antibody, V domains shown)
VH: B1 VH
VL: B1 VL
notes: Mouse hybridoma antibody with kappa light chain
Regarding B2, in experiment [2], the IC50 came out at 0.77 µg/mL.

B3: humanized anti-CLEVER-1 antibody FAR02 VH3/VK5 (antibody, V domains shown)
VH: QVTLKESGPTLVKPTQTLTLTCSFSGFSLSTSGMGIGWIRQPPGKALEWLAHIWWDDDKRYNPALKSRLTISKDTSKNQVVLTMTNMDPVDTATYYCARHYGYDPYYAMDYWGQGTLVTVSS
VL: EIVLTQSPGTLSLSPGERATLSCTASSSVSSSYLHWYQQKPGKAPKLLIYRTSNLASGVPSRFSGSGSGTDYTLTISSLQPEDFATYYCHQYHRSPPTFGQGTKLEIK
notes: Named as a potential lead; also called FAR02 VH3A/K5
For B3, the “Relative IC50” value in experiment [1] was 0.42 relative to the chimera on the same plate.
